Measurements published in patent publication US7078038 (INSTITUT DE RECHERCHE POUR LE DEVELOPPEMENT I R D, dated 2006).

Biological target: T1, W338S gp120 (rgp120 of the HXB2 clone of HIV-IIIB with the W338S mutation) (HIV-1 (HXB2 clone of HIV-IIIB), UniProt P04578 33-511)
T1 construct: domain: gp120; Position counted in HxBc2 numbering; also called muted gp120; mutant gp120
Assay: FACS on CEM cells: no labelling by anti-CXCR4 12GS after incubation with gp120

B1: CXCR4 receptor on the cell surface (receptor)
chain: MEGISIYTSDNYTEEMGSGDYDSMKEPCFREENANFNKIFLPTIYSIIFLTGIVGNGLVILVMGYQKKLRSMTDKYRLHLSVADLLFVITLPFWAVDAVANWYFGNFLCKAVHVIYTVNLYSSVLILAFISLDRYLAIVHATNSQRPRKLLAEKVVYVGVWIPALLLTIPDFIFANVSEADDRYICDRFYPNDLWVVVFQFQHIMVGLILPGIVILSCYCIIISKLSHSKGHQKRKALKTTVILILAFFACWLPYYIGISIDSFILLEIIKQGCEFENTVHKWISITEALAFFHCCLNPILYAFLGAKFKTSAQHALTSVSRGSSLKILSKGKRGGHSSVSTESESSSFHSS
notes: whole, on cells; also called CXCR4 co-receptor; CEM cells CD4+/CXCR4+
B1: binds.
